Columns and labels:
[1] = molecular target: LgBiT-BOK-TMD (transmembrane domain of BOK as NanoBiT fusion) (UniProt Q9UMX3); assay: split reporter (BiFC, NanoBiT); NanoBiT split luciferase in living HEK293FT cells; LgBiT-TMD and SmBiT-TMD plasmids transfected 1:1, 24 h; cells in Opti-MEM, 5 uM coelenterazine-h, luminescence 30 min after substrate; absolute RLU (Fig. 1C) or normalized to mTurquoise2 fluorescence and set relative to BAX-TMD/BAX-TMD = 1 (Fig. 1F, 6C)
[2] = molecular target: LgBiT-BOK-TMD (transmembrane domain of BOK as NanoBiT fusion) (UniProt Q9UMX3); assay: split reporter (BiFC, NanoBiT); NanoBiT split luciferase in living MCF-7 cells; transfected 24 h; luminescence relative to the positive control BAX-TMD/BAX-TMD
[3] = molecular target: BAX-TMD (transmembrane domain of BAX) as NanoBiT fusion (UniProt Q07812); assay: split reporter (BiFC, NanoBiT); NanoBiT split luciferase in living HEK293FT cells; LgBiT-TMD and SmBiT-TMD plasmids transfected 1:1, 24 h; cells in Opti-MEM, 5 uM coelenterazine-h, luminescence 30 min after substrate; absolute RLU (Fig. 1C) or normalized to mTurquoise2 fluorescence and set relative to BAX-TMD/BAX-TMD = 1 (Fig. 1F, 6C)

Sequence of UniProt Q9UMX3 (Q9UMX3 whole entry, the tested form may be a part): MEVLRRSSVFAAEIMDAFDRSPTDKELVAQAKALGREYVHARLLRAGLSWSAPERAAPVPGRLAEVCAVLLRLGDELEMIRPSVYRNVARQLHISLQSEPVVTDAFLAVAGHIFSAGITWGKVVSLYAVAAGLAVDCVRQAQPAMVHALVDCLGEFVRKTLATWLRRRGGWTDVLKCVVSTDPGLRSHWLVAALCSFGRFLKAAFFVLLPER

Substance | relative normalized luminescence (BAX-TMD/BAX-TMD = 1) (relative to the positive control) [1] | other results
SmBiT-BCL-2-TMD L223A V226A (from UniProt P10415 1-239) (domain or fragment) | 0.21 | –
BAX-TMD (transmembrane domain of BAX) as NanoBiT fusion (from UniProt Q07812 1-192) (domain or fragment) | – | luminescence [3]: 16600 RLU
SmBiT-BCL-2-TMD V226A I230A (from UniProt P10415 1-239) (domain or fragment) | 0.21 | –
SmBiT-BCL-2-TMD L223A V226A I230A (from UniProt P10415 1-239) (domain or fragment) | 0.13 | –

Now from value to substance, other results behind:

relative normalized luminescence (BAX-TMD/BAX-TMD = 1) (relative to the positive control) [1] | Substance | other results
0.47 | SmBiT-BCL-2-TMD (transmembrane domain of BCL-2 as NanoBiT fusion) (from UniProt P10415 1-239) (domain or fragment) | normalized luminescence as percent of the positive control (BAX-/BAX-TMD) (% of the positive control) [1]: 46; normalized luminescence as percent of the positive control (BAX-TMD/BAX-TMD) (% of the positive control) [2]: 30
0.21 | SmBiT-BCL-2-TMD I230A (from UniProt P10415 1-239) (domain or fragment) | –
